Measurements published in the supplement of paper PMC9112550, “Optimization of the antimicrobial peptide Bac7 by deep mutational scanning” (BMC Biology, 2022).

System: Escherichia coli TOP10
Experiment: shrunken log2 fold change of peptide-encoding DNA abundance (4.5 h post-induction vs induction); higher = less antimicrobial activity (less host growth inhibition)
Conditions: time post-induction: 4.5 h; library: site-saturation at positions 5, 18, 19, 20
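Note: peptides expressed intracellularly from a pBAD plasmid library in pooled LB shake-flask culture, induced with 0.3% L-arabinose, DNA abundance read by NGS, three biological replicates, DESeq2 with apeglm shrinkage.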

| Sequence | shrunken log2 fold change |
| --- | --- |
| RRIRYRPPRLPRPRPRPFRAPRP | -0.142 |
| RRIRRRPPRLPRPRPRPILFPRP | -0.026 |
| RRIRCRPPRLPRPRPRPNALPRP | 0.0653 |
| RRIRWRPPRLPRPRPRPKWKPRP | 0.401 |
| RRIRVRPPRLPRPRPRPKYFPRP | -0.239 |
| RRIRLRPPRLPRPRPRPCHTPRP | -0.173 |
| RRIRFRPPRLPRPRPRPTQPPRP | 0.202 |
| RRIRPRPPRLPRPRPRPMCGPRP | -0.252 |
| RRIRPRPPRLPRPRPRPLTYPRP | -0.0089 |
| RRIRFRPPRLPRPRPRPDQEPRP | -0.0176 |
| RRIRARPPRLPRPRPRPQTPPRP | 0.456 |
| RRIRDRPPRLPRPRPRPYNQPRP | -0.135 |
| RRIRRRPPRLPRPRPRPAKVPRP | 0.0346 |
| RRIRLRPPRLPRPRPRPEPKPRP | 0.238 |
| RRIRHRPPRLPRPRPRPYFPPRP | -1.43 |
| RRIRKRPPRLPRPRPRPNPWPRP | 0.00515 |
| RRIRTRPPRLPRPRPRPRREPRP | 0.351 |
| RRIRYRPPRLPRPRPRPIMRPRP | 0.0675 |
| RRIRGRPPRLPRPRPRPSSSPRP | -0.296 |
| RRIRLRPPRLPRPRPRPQAKPRP | -0.0308 |

| Sequence | shrunken log2 fold change |
| --- | --- |
| RRIRERPPRLPRPRPRPMPRPRP | 0.0247 |
| RRIRERPPRLPRPRPRPIWYPRP | 0.0381 |
| RRIRLRPPRLPRPRPRPEEYPRP | 0.0401 |
| RRIRKRPPRLPRPRPRPKCFPRP | 0.00084 |
| RRIRSRPPRLPRPRPRPNKPPRP | -0.23 |
| RRIRNRPPRLPRPRPRPWGLPRP | -0.123 |
| RRIRPRPPRLPRPRPRPMSLPRP | -0.769 |
| RRIRKRPPRLPRPRPRPELIPRP | 0.0174 |
| RRIRNRPPRLPRPRPRPCFEPRP | 0.00026 |
| RRIRYRPPRLPRPRPRPIMTPRP | -0.991 |
| RRIRIRPPRLPRPRPRPWVMPRP | -0.152 |
| RRIRERPPRLPRPRPRPSHWPRP | -0.292 |
| RRIRQRPPRLPRPRPRPGSYPRP | -0.2 |
| RRIRCRPPRLPRPRPRPCILPRP | -1.1 |
| RRIRWRPPRLPRPRPRPNIRPRP | -0.135 |
| RRIRERPPRLPRPRPRPKRHPRP | 0.0422 |
| RRIRYRPPRLPRPRPRPHVAPRP | -0.312 |
| RRIRGRPPRLPRPRPRPPYEPRP | 0.0264 |
| RRIRERPPRLPRPRPRPDDNPRP | 0.0486 |
| RRIRDRPPRLPRPRPRPYTHPRP | -0.267 |

| Sequence | shrunken log2 fold change |
| --- | --- |
| RRIRVRPPRLPRPRPRPNQMPRP | -0.092 |
| RRIRPRPPRLPRPRPRPGIPPRP | -0.157 |
| RRIRPRPPRLPRPRPRPFEGPRP | -0.0632 |
| RRIRHRPPRLPRPRPRPFNYPRP | 0.0485 |
| RRIRCRPPRLPRPRPRPTGHPRP | -0.113 |
| RRIRVRPPRLPRPRPRPMEEPRP | 0.215 |
| RRIRFRPPRLPRPRPRPWGNPRP | 0.117 |
| RRIRQRPPRLPRPRPRPPWYPRP | -0.226 |
| RRIRRRPPRLPRPRPRPFSKPRP | -0.348 |
| RRIRDRPPRLPRPRPRPFYRPRP | 0.03 |
| RRIRTRPPRLPRPRPRPHNGPRP | -0.0789 |
| RRIRSRPPRLPRPRPRPIPVPRP | -0.208 |
| RRIRSRPPRLPRPRPRPRKMPRP | 0.207 |
| RRIRRRPPRLPRPRPRPRTHPRP | 0.108 |
| RRIRCRPPRLPRPRPRPEGMPRP | 0.422 |
| RRIRVRPPRLPRPRPRPITAPRP | -0.272 |
| RRIRNRPPRLPRPRPRPADAPRP | 0.261 |
| RRIRGRPPRLPRPRPRPMFRPRP | 0.303 |
| RRIRPRPPRLPRPRPRPGNKPRP | -0.0476 |
| RRIRSRPPRLPRPRPRPRVAPRP | 0.179 |
